Measured values published in paper PMC3756526 (2013).

B1: ASB9–EloBC ternary complex (ankyrin-repeat and SOCS-box protein 9, Elongin B, Elongin C) (complex)
chain 1: SDWSPMHEAAIHGHQLSLRNLISQGWAVNIITADHVSPLHEACLGGHLSCVKILLKHGAQVNGVTADWHTPLFNACVSGSWDCVNLLLQHGASVQPESDLASPIHEAARRGHVECVNSLIAYGGNIDHKISHLGTPLYLACENQQRACVKKLLESGADVNQGKGQDSPLHAVARTASEELACLLMDFGADTQAKNAEGKRPVELVPPESPLAQLFLEREGPPSLMQLCRLRIRKCFGIQQHHKITKLVLPEDLKQFLLHL
chain 2: MDVFLMIRRHKTTIFTDAKESSTVFELKRIVEGILKRPPDEQRLYKDDQLLDDGKTLGECGFTSQTARPQAPATVGLAFRADDTFEALCIEPFSSPPELPDVMKPQDSGSSANEQAVQ
chain 3: MYVKLISSDGHEFIVKREHALTSGTIKAMLSGPGQFAENETNEVNFREIPSHVLSKVCMYFTYKVRYTNSSTEIPEFPIAPEIALELLMAANFLDC

Experiments:
[1] = biological target: ASB9–EloBC ternary complex (ankyrin-repeat and SOCS-box protein 9, Elongin B, Elongin C) (human) (UniProt Q96DX5); assay: native MS; nanoESI–MS of the reconstituted ASB9–EloBC–Cul5NTD sample at three concentrations; 500 mM ammonium acetate, pH 7.0
[2] = biological target: ASB9–EloBC ternary complex (ankyrin-repeat and SOCS-box protein 9, Elongin B, Elongin C) (human) (UniProt Q96DX5); assay: ITC; 288 K; Cul5NTD (450 μM) titrated into ASB9–EloBC (60 μM) in the cell; 50 mM HEPES, 100 mM NaCl, pH 7.5, 1 mM TCEP; one-set-of-sites model
[3] = biological target: ASB9–EloBC ternary complex (ankyrin-repeat and SOCS-box protein 9, Elongin B, Elongin C) (human) (UniProt Q96DX5); assay: ITC; 303 K; Cul5NTD (450 μM) titrated into ASB9–EloBC (60 μM) in the cell; 50 mM HEPES, 100 mM NaCl, pH 7.5, 1 mM TCEP; one-set-of-sites model
[4] = biological target: ASB9–EloBC ternary complex (ankyrin-repeat and SOCS-box protein 9, Elongin B, Elongin C) (human) (UniProt Q96DX5); assay: ITC; 298 K; Cullin NTD (450 μM) titrated into ASB9–EloBC (60 μM) in the cell; 50 mM HEPES, 100 mM NaCl, pH 7.5, 1 mM TCEP; one-set-of-sites model
[5] = biological target: ASB9–EloBC ternary complex (ankyrin-repeat and SOCS-box protein 9, Elongin B, Elongin C) (human) (UniProt Q96DX5); assay: differential scanning fluorimetry; 2 μM ASB9–EloBC with Cul5NTD at 8, 4, 2, 1, 0.5 and 0.25 μM; Sypro Orange; 50 mM HEPES, 100 mM NaCl, pH 7.5, 1 mM TCEP; 37 to 95 °C at 1 °C/min
[6] = biological target: T1, Cullin 5 N-terminal domain (residues 1–386, V341R, L345D) (human, UniProt Q93034 1-386, V341R | L345D); assay: ITC; 288 K
[7] = biological target: T1, Cullin 5 N-terminal domain (residues …); assay: ITC; 293 K
[8] = biological target: T1, Cullin 5 N-terminal domain (residues …); assay: ITC; 303 K

| stoichiometry N [1] | dH [2] [kcal/mol] | dH [3] [kcal/mol] | Kd [4] [nM] | dH [4] [kcal/mol] | stoichiometry N [4] | ΔTm [5] [°C] | Kd [6] [nM] | Kd [7] [nM] | Kd [8] [nM] | Molecule |
| --- | --- | --- | --- | --- | --- | --- | --- | --- | --- | --- |
| 1 | -3 | -8.3 | 220 | -6 | 1 | 4.6 |  |  |  | Cullin 5 N-terminal domain (residues 1–386, V341R, L345D) (from UniProt Q93034 1-386) (domain or fragment) |
|  |  |  |  |  |  |  | 282 | 119 | 61 | B1 |
